{"source": "patent US20250250357A1", "binders": {"B1": {"name": "Tab020 (YP223, rabbitIgG1) (antibody, V domains shown)", "VH": "QEQLEESGGDLVQPEGSLTLTCKASGLDFSSSYWICWVRQAPGKGLEWIGCRHTFTANTWSASWVNGRFTISRSTSLGTVDLKMTSLTAADTATYFCARDESNNDGWDFKLWGPGTLVTVSS", "VL": "AYDMTQTPASVSAAVGGTVTIKCQASQSISNYLAWYQQKPGQPPKLLIYQASTLAPGVSSRFKGSGSGTEFTLTISGVECADAATYYCQQGYTSSNVENVFGGGTGVVVGD"}}, "key": {"[1]": {"target": "monkey MSLN full-length protein (NCBI: XP_028696439.1) on HEK293T cells (monkey)", "test": "FACS on HEK293T-monkey MSLN cells; antibody 0.0064 nM"}, "[2]": {"target": "human MSLN full-length protein (NCBI: AAH09272.1) on stably transfected CHO-K1 or HEK293T cells (human) (UniProt Q13421)", "test": "FACS on CHO-K1-hMSLN-2C8 cells; antibody 20 nM"}, "[3]": {"target": "human MSLN full-length protein (NCBI: AAH09272.1) on stably transfected CHO-K1 or HEK293T cells (human) (UniProt Q13421)", "test": "FACS on CHO-K1-hMSLN-2C5 cells; secondary antibody control 37"}, "[4]": {"target": "human MSLN full-length protein (NCBI: AAH09272.1) on stably transfected CHO-K1 or HEK293T cells (human) (UniProt Q13421)", "test": "FACS on CHO-K1-hMSLN-2C8 cells; antibody 4 nM"}, "[5]": {"target": "monkey MSLN full-length protein (NCBI: XP_028696439.1) on HEK293T cells (monkey)", "test": "FACS on HEK293T-monkey MSLN cells; antibody 0.8 nM"}, "[6]": {"target": "human MSLN full-length protein (NCBI: AAH09272.1) on stably transfected CHO-K1 or HEK293T cells (human) (UniProt Q13421)", "test": "FACS on HEK293T-hMSLN-B8 cells; secondary antibody control 1"}, "[7]": {"target": "human MSLN full-length protein (NCBI: AAH09272.1) on stably transfected CHO-K1 or HEK293T cells (human) (UniProt Q13421)", "test": "FACS on CHO-K1-hMSLN clone 2C8, overlay with secondary antibody only"}, "[8]": {"target": "human MSLN full-length protein (NCBI: AAH09272.1) on stably transfected CHO-K1 or HEK293T cells (human) (UniProt Q13421)", "test": "FACS on CHO-K1-hMSLN-2C8 cells; secondary antibody control 37"}, "[9]": {"target": "human MSLN full-length protein (NCBI: AAH09272.1) on stably transfected CHO-K1 or HEK293T cells (human) (UniProt Q13421)", "test": "FACS on HEK293T-hMSLN-2A7 cells; secondary antibody control 1"}, "[10]": {"target": "human MSLN full-length protein (NCBI: AAH09272.1) on stably transfected CHO-K1 or HEK293T cells (human) (UniProt Q13421)", "test": "FACS on CHO-K1-hMSLN clone 2C5, overlay with secondary antibody only"}, "[11]": {"target": "human MSLN full-length protein (NCBI: AAH09272.1) on stably transfected CHO-K1 or HEK293T cells (human) (UniProt Q13421)", "test": "FACS on CHO-K1-hMSLN-2C8 cells; antibody 0.0064 nM"}, "[12]": {"target": "human MSLN full-length protein (NCBI: AAH09272.1) on stably transfected CHO-K1 or HEK293T cells (human) (UniProt Q13421)", "test": "FACS on CHO-K1-hMSLN-2C8 cells; antibody 100 nM"}, "[13]": {"target": "monkey MSLN full-length protein (NCBI: XP_028696439.1) on HEK293T cells (monkey)", "test": "FACS on HEK293T-monkey MSLN cells; antibody 4 nM"}, "[14]": {"target": "human MSLN full-length protein (NCBI: AAH09272.1) on stably transfected CHO-K1 or HEK293T cells (human) (UniProt Q13421)", "test": "FACS on CHO-K1-hMSLN-2C8 cells; antibody 0.8 nM"}, "[15]": {"target": "monkey MSLN full-length protein (NCBI: XP_028696439.1) on HEK293T cells (monkey)", "test": "FACS on HEK293T-monkey MSLN cells; antibody 20 nM"}, "[16]": {"target": "human MSLN full-length protein (NCBI: AAH09272.1) on stably transfected CHO-K1 or HEK293T cells (human) (UniProt Q13421)", "test": "FACS on CHO-K1-hMSLN-2C8 cells; antibody […]"}, "[17]": {"target": "monkey MSLN full-length protein (NCBI: XP_028696439.1) on HEK293T cells (monkey)", "test": "FACS on HEK293T-monkey MSLN cells; antibody […]"}, "[18]": {"target": "human MSLN full-length protein (NCBI: AAH09272.1) on stably transfected CHO-K1 or HEK293T cells (human) (UniProt Q13421)", "test": "FACS on CHO-K1-hMSLN clone 2D11, overlay with secondary antibody only"}, "[19]": {"target": "monkey MSLN full-length protein (NCBI: XP_028696439.1) on HEK293T cells (monkey)", "test": "FACS on HEK293T-monkey MSLN cells; antibody 0.032 nM"}, "[20]": {"target": "human MSLN full-length protein (NCBI: AAH09272.1) on stably transfected CHO-K1 or HEK293T cells (human) (UniProt Q13421)", "test": "FACS on HEK293T-hMSLN-2A4 cells; secondary antibody control 1"}, "[21]": {"target": "human MSLN full-length protein (NCBI: AAH09272.1) on stably transfected CHO-K1 or HEK293T cells (human) (UniProt Q13421)", "test": "FACS on CHO-K1-hMSLN-2C8 cells; antibody 0.032 nM"}, "[22]": {"target": "human MSLN full-length protein (NCBI: AAH09272.1) on stably transfected CHO-K1 or HEK293T cells (human) (UniProt Q13421)", "test": "FACS on CHO-K1-hMSLN-2C8 cells; antibody 0.00128 nM"}, "[23]": {"target": "human MSLN full-length protein (NCBI: AAH09272.1) on stably transfected CHO-K1 or HEK293T cells (human) (UniProt Q13421)", "test": "FACS on CHO-K1-hMSLN-2D11 cells; secondary antibody control 37"}, "[24]": {"target": "monkey MSLN full-length protein (NCBI: XP_028696439.1) on HEK293T cells (monkey)", "test": "FACS on HEK293T-monkey MSLN cells; antibody 0.00128 nM"}, "[25]": {"target": "monkey MSLN full-length protein (NCBI: XP_028696439.1) on HEK293T cells (monkey)", "test": "FACS on HEK293T-monkey MSLN cells; antibody 100 nM"}}, "data": [{"binder": "B1", "values": [{"measurement": "FACS fluorescence intensity", "setting": "[1]", "result": 85}, {"measurement": "FACS fluorescence intensity", "setting": "[2]", "result": 15400}, {"measurement": "Mean fluorescence intensity of cells", "setting": "[3]", "result": 206000}, {"measurement": "FACS fluorescence intensity", "setting": "[4]", "result": 9000}, {"measurement": "FACS fluorescence intensity", "setting": "[5]", "result": 88}, {"measurement": "Mean fluorescence intensity of cells", "setting": "[6]", "result": 24400}, {"measurement": "percent of cells in the APC-A+ gate", "setting": "[7]", "result": 99.4, "unit": "%"}, {"measurement": "Mean fluorescence intensity of cells", "setting": "[8]", "result": 234000}, {"measurement": "Mean fluorescence intensity of cells", "setting": "[9]", "result": 6580}, {"measurement": "percent of cells in the APC-A+ gate", "setting": "[10]", "result": 100, "unit": "%"}, {"measurement": "FACS fluorescence intensity", "setting": "[11]", "result": 96}, {"measurement": "FACS fluorescence intensity", "setting": "[12]", "result": 15300}, {"measurement": "FACS fluorescence intensity", "setting": "[13]", "result": 90}, {"measurement": "FACS fluorescence intensity", "setting": "[14]", "result": 2290}, {"measurement": "FACS fluorescence intensity", "setting": "[15]", "result": 100}, {"measurement": "FACS fluorescence intensity", "setting": "[16]", "result": 593}, {"measurement": "FACS fluorescence intensity", "setting": "[17]", "result": 86}, {"measurement": "percent of cells in the APC-A+ gate", "setting": "[18]", "result": 100, "unit": "%"}, {"measurement": "FACS fluorescence intensity", "setting": "[19]", "result": 85}, {"measurement": "Mean fluorescence intensity of cells", "setting": "[20]", "result": 15400}, {"measurement": "FACS fluorescence intensity", "setting": "[21]", "result": 206}, {"measurement": "FACS fluorescence intensity", "setting": "[22]", "result": 75}, {"measurement": "Mean fluorescence intensity of cells", "setting": "[23]", "result": 218000}, {"measurement": "FACS fluorescence intensity", "setting": "[24]", "result": 85}, {"measurement": "FACS fluorescence intensity", "setting": "[25]", "result": 126}]}]}
